# Experimental data reported in the supplement of paper PMC9170038.
# System: MS2 coat protein
# Assay: apparent KD of MS2 coat protein; designed switch direction (-1 OFF switch, 1 ON switch): -1; higher = weaker reporter binding
# Procedure, shortened: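 On Illumina chips, designed RNA switches with common flanks were made by stalled E. coli RNA polymerase. Titrations with SNAP-549-labelled MS2 coat protein, doubling from 0.7 or 1.5 nM to 3 µM, were done with no input, with 200 uM small-molecule ligand, or with an oligonucleotide input. Apparent KD is the median per design over clusters, from curve fits of normalised cluster fluorescence.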
# [1] = Eterna round: R95, input ligand: FMN 200 uM
# [2] = Eterna round: R95, input ligand: microRNA oligo, concentration not stated
# [3] = Eterna round: R95, input ligand: none
# [4] = input ligand: microRNA oligo, concentration not stated
Sequence,apparent KD of MS2 coat protein [1],apparent KD of MS2 coat protein [2],apparent KD of MS2 coat protein [3],apparent KD of MS2 coat protein [4],apparent KD of MS2 coat protein (input ligand: FMN 200 uM),apparent KD of MS2 coat protein (input ligand: none)
"GGUACUAACACGAGAGUGUUAGUACUAUAAGCUUGUGUUACAUGAGGAUCACCCAUGUCCUCAUAAGCUCGUCUUGU [Mat - Sensor v3 - Turn-off var 2 - D88] (puzzle: Sensor v3, turn-off variant 2)",0.0482 µM,0.0548 µM,0.0468 µM,,,
"GGUACUAACACGAGAGUGUUAGUACUAUAAGCUUGUGUUACAUGAGGAUCACCCAUGUCCUCAUAGGCUCGUCUUAG [Mat - Sensor v3 - Turn-off var 2 - D84] (puzzle: Sensor v3, turn-off variant 2)",0.0937 µM,0.0348 µM,0.0919 µM,,,
"GGUACUCAAAGAGUACCAAUACGAACAUGAGGAUCACCCAUGUAGGAUAUGCUACUCAAAGAGUAGCAGAAGGACGUGUGCCUU [Far Half Aptamer v4] (Eterna round: R96, puzzle: Exclusion NG 3)",,,,0.0156 µM,,
"GGUAGAGUGGUAGGAUAUCCGGCUGUUUCAGUCGGAGAAGGACCACAGUCACUGGGUCCAAAUAUGGGUGACCAUGUAUCUACC [pwkr exNG1 F6.6] (Eterna round: R96, puzzle: Exclusion NG 1)",,,,0.337 µM,0.985 µM,0.371 µM
"GGUCAAGAACAGAUCCGCGCUGUCCUUGACCGCUCAUUUACAUGAGGAUCACCCAUGUUUUUUGCUUGUCUUGUUAC [Tixegeis] (puzzle: Sensor v3, turn-off variant 2)",0.0174 µM,0.0967 µM,0.0165 µM,,,
"GGUCAAGAGCAGAUCCGCGCUGCCAUUGACCGCUCAUUUACAUGAGGAUCACCCAUGUUUUUUGCUCGUCUUACUAC [Inedsoinin] (puzzle: Sensor v3, turn-off variant 2)",0.0182 µM,0.0579 µM,0.0203 µM,,,
"GGUCAGCUAGGAUAUACAUGAGGAUCACCCAUGUACUGACCCAUGCGGGAGCCUGCAUGUAGAAGGAGCAAUAU [Onzatiqula] (Eterna round: R97, puzzle: Exclusion 3)",,,,,0.037 µM,0.0553 µM
"GGUCAUCAAGUCAGGAUAUCGUCUGAUCAAUCAGGCGAGAAGGGACAUGAGGAUCACCCAUGUCGACUCAUCAG [Ex4 #7] (Eterna round: R97, puzzle: Brourd's mod of Exclusion 4)",,,,,0.0853 µM,0.0194 µM
GGUCGGCGAGGAUAUACAUGAGGAUCACCCAUGUGAUAGAGUGCACGAAAACGUGUACGUAGAAGGCGCUGACG [Mat - Exclusion 3 - Mod of JL D96] (puzzle: Exclusion 3),0.0295 µM,0.011 µM,0.00924 µM,,,
"GGUCUACAUGAGGAUCACCCAUGUAAGGAUAUCUACAUUGAAGCUUCGGCUUCAAUGUAGAGAAGGUGCAUAAU [E1/11-B1] (Eterna round: R97, puzzle: Exclusion 1)",,,,,0.0373 µM,0.0314 µM
"GGUGAGCUAGGAUAUGCUUUGGGAAAGCAUUCCUUCGAUAAACUUGAGGAUCACCCAAGUAGAAGGAGCUUGCC [salish99_ex2_r4_019] (Eterna round: R97, puzzle: Exclusion 2)",,,,,0.0187 µM,0.0119 µM
GGUGCGUAUGUGAGGAUAUGCUGGUCCUUGGAUCGGCAGAAGGCACAUGAGGAUCACCCAUGUGGUGUCGUACU [salish99_Bmod_ex4_082] (puzzle: Brourd's mod of Exclusion 4),,0.173 µM,,,,
GGUGCGUAUGUGAGGAUAUGCUGGUCCUUGGUUCAGCAGAAGGCACAUGAGGAUCACCCAUGUGGUGUCGUACC [salish99_Bmod_Ex4_025] (puzzle: Brourd's mod of Exclusion 4),,0.188 µM,,,,
GGUGCGUAUGUUAGGAUAUGCUGGUCCUUGGAUCGGCAGAAGGUACAUGAGGAUCACCCAUGUGGUGUCGUUCC [salish99_Bmod_ex4_103] (puzzle: Brourd's mod of Exclusion 4),,0.0508 µM,,,,
GGUGCGUUUGUGAGGAUAUGCUGGUCCUUGGAUCAGCAGAAGGCACAUGAGGAUCACCCAUGUGGUGUCGUACC [salish99_Bmod_Ex4_030] (puzzle: Brourd's mod of Exclusion 4),,0.273 µM,,,,
"GGUGCUGGCGCGUCGGUGUUGGUGCAAUAAGCUUGUGAAACAUGAGGAUCACCCAUGUCCUCAUAAGCUCGUCUUGU [salish99_TOv2_r2_087] (puzzle: Sensor v3, turn-off variant 2)",0.0144 µM,0.283 µM,0.0128 µM,,,

Sequence,apparent KD of MS2 coat protein [1],apparent KD of MS2 coat protein [2],apparent KD of MS2 coat protein [3],apparent KD of MS2 coat protein [4],apparent KD of MS2 coat protein (input ligand: FMN 200 uM),apparent KD of MS2 coat protein (input ligand: none)
"GGUGCUGGCGCGUCGGUGUUGGUGCAAUAAGCUUGUGAAACAUGAGGAUCACCCAUGUCCUCAUAGGCUCGUCUUGU [salish99_TOv2_r2_088] (puzzle: Sensor v3, turn-off variant 2)",0.0164 µM,0.544 µM,0.0144 µM,,,
GGUGGACAUGAGGAUCACCCAUGUGAGGAUAUCGGCCGGUGCGUGGUGGCUGGCGUCUCGAGAAGGCACAUAGU [Exclusion 1 V68] (puzzle: Exclusion 1),,0.0749 µM,,,,
"GGUGGGCUAGGAUAUGCUUUGGGCAAGCAUUCCUUCGAUAAACUUGAGGAUCACCCAAGUAGAAGGAGCUUGCC [salish99_ex2_r4_026] (Eterna round: R97, puzzle: Exclusion 2)",,,,,0.0115 µM,0.0106 µM
"GGUGUGAGGCAGGAUAUGCAAUAUGUAAGUAAUGCAGAAGGGUCUACAUGAGGAUCACCCAUGUGUGCGGUAGA [Ex6 #3] (Eterna round: R97, puzzle: Exclusion 6)",,,,,0.251 µM,0.14 µM
"GGUUAACAUGAGGAUCACCCAUGUGAGGAUAUGUUCAGGAUGAUAAAUAGAAGAGAUAAUAGAAGGCACUUUGG [Bubbles5] (Eterna round: R97, puzzle: Exclusion 1)",,,,,0.0576 µM,0.0399 µM
GGUUGACAUGAGGAUCACCCAUGUGAGGAUAUGCGAGAGAAAAAAGUGAGGAAGAAAAGUAGAAGGCGCUGACG [salish99-ex1_r3_001] (puzzle: Exclusion 1),0.0599 µM,0.049 µM,0.0571 µM,,,
GGUUGACAUGAGGAUCACCCAUGUGAGGAUAUGCGAGAGAAAAAAGUGAGGAAGGAAUGCAGAAGGCGCUGUCG [salish99-ex1_r3_018] (puzzle: Exclusion 1),0.0433 µM,0.0543 µM,0.0577 µM,,,
GGUUGGCGAGGAUAUACAUGAGGAUCACCCAUGUGAGAGAAAAAAGUGAGGAAGAAAAGUAGAAGGCGCUGACC [salish99_ex3_r3_048] (puzzle: Exclusion 3),0.256 µM,0.0446 µM,0.0539 µM,,,
GGUUGGCGAGGAUAUACAUGAGGAUCACCCAUGUGAGAGAAAAAAGUGAGGAAGAAAAGUAGAAGGCGUUGACG [salish99_ex3_r3_052] (puzzle: Exclusion 3),0.0662 µM,0.0483 µM,0.0428 µM,,,
"GGUUGGCGAGGAUAUACAUGAGGAUCACCCAUGUGGUCCUGUAAAAAAAAAAACCUUUGUAGAAGGCGCGGGUC [salish99_ex3_r4_034] (Eterna round: R97, puzzle: Exclusion 3)",,,,,0.211 µM,0.233 µM
"GGUUGUUUUUUCCUUUCUUACAUGAGGAUCACCCAUGUUUCUUGUCGUGCUCGCGUUGCUCGUCUGUCUGUCUGUUG [salish99_TOv1_r3_074] (puzzle: Sensor v3, turn-off variant 1)",0.0499 µM,0.0366 µM,0.0556 µM,,,
"GGUUUCGUAGGAUAUCAUCGAGUAAACAUGAGGAUCACCCAUGUGAGGUCGGCUUGCUCUUGAGAAGGAUGAAUGG [EX5 B.13] (Eterna round: R97, puzzle: Exclusion 5)",,,,,0.0401 µM,0.034 µM
GUAAAGGUAGGAUAUACGAAGAAAAAGGGUAGAAUAAUAACACAUGAGGAUCACCCAUGUAGAAGGACCAAAGG [Mat - Exclusion 2 - Mod of my Tesla design - D8] (puzzle: Exclusion 2),0.0498 µM,0.0264 µM,0.0238 µM,,,
GUAAAGUGAGGAUAUGGUAAAGUAAUUAUUUAGUAAUUAAUCCAGAAGGCACAUGAGGAUCACCCAUGUAAAUG [Mat - Exclusion 4 - D96] (puzzle: Exclusion 4),0.0446 µM,0.0261 µM,0.0287 µM,,,
GUAAAGUGAGGAUAUGGUGAGUAGUGCCUGAGCGCUGCUCACCAGAAGGCACAUGAGGAUCACCCAUGUAUAGC [Mat - Exclusion 4 - Mod of JL - D17] (puzzle: Exclusion 4),,0.014 µM,,,,
